Values of other authors in patent US11931453B2, “Drug delivery device” (NANO PRECISION MEDICAL, INC., priority 2016, dated 2024).

Conditions: estimated, based on molecular dimensions of similar peptides (literature)

GLP-1: Glucagon-Like Peptide-1; exenatide is an analog of GLP-1
Stokes' diameter / hydrodynamic diameter: about 2.6 nm
